Assay results published in patent US20250381289A1, “EGFR AND C-MET BISPECIFIC BINDING AGENTS, CONJUGATES THEREOF AND METHODS OF USING THE SAME” (GENMAB A/S, priority 2024, published 2025).

B1: Nova-5091: parent cMET mAb; sequences in Table 1 (antibody, V domains shown)
VH: QVQLVQSGAEVKKPGASVKVSCKASGYTFTGYYMNWVRQAPGQGLEWMGIINPWTGNTNYAQKFQGRVTMTRDTSISTAYMELSSLRSEDTAVYYCARDPGFFYYTPSDLWGQGTLVTVSS
VL: DIELTQPPSVSVAPGQTARISCSGDSIGNKYVHWYQQKPGQAPVLVIYADSDRPSGIPERFSGSNSGNTATLTISGTQAEDEADYYCQSYAHYHDIWVFGGGTKLTVLG
B2: Onartuzumab: parent cMET mAb; sequences in Table 1 (antibody, V domains shown)
VH: EVQLVESGGGLVQPGGSLRLSCAASGYTFTSYWLHWVRQAPGKGLEWVGMIDPSNSDTRFNPNFKDRFTISADTSKNTAYLQMNSLRAEDTAVYYCATYRSYVTPLDYWGQGTLVTVSS
VL: DIQMTQSPSSLSASVGDRVTITCKSSQSLLYTSSQKNYLAWYQQKPGKAPKLLIYWASTRESGVPSRFSGSGSGTDFTLTISSLQPEDFATYYCQQYYAYPWTFGQGTKVEIK
B3: Nova-5097: parent cMET mAb; sequences in Table 1 (antibody, V domains shown)
VH: QVQLVQSGAEVKKPGSSVKVSCKASGGTFSSYAISWVRQAPGQGLEWMGGIDPFGTANYAQKFQGRVTITADESTSTAYMELSSLRSEDTAVYYCARVYQDVWGQGTLVTVSS
VL: DIVMTQSPDSLAVSLGERATINCRSSQSILYGINNNFLGWYQQKPGQPPKLLIYWASTRESGVPDRFSGSGSGTDFTLTISSLQAEDVAVYYCQQYAFGWTFGQGTKVEIK
B4: Nova-5098: parent cMET mAb; sequences in Table 1 (antibody, V domains shown)
VH: QVQLVQSGAEVKKPGSSVKVSCKASGGTFSSYAISWVRQAPGQGLEWMGGIDPFGTANYAQKFQGRVTITADESTSTAYMELSSLRSEDTAVYYCARVYQDVWGQGTLVTVSS
VL: DIVMTQSPDSLAVSLGERATINCRSSQSILYGINNNFLGWYQQKPGQPPKLLIYWASTRESGVPDRFSGSGSGTDFTLTISSLQAEDVAVYYCLQYSDEPWTFGQGTKVEIK
B5: Nova-5185: parent cMET mAb; sequences in Table 1 (antibody, V domains shown)
VH: QVQLVQSGAEVKKPGSSVKVSCKASGGTFSSYAISWVRQAPGQGLEWMGGIDPIMGTEYAQKFQGRVTITADESTSTAYMELSSLRSEDTAVYYCARVYQDVWGQGTLVTVSS
VL: DIVMTQSPDSLAVSLGERATINCRSSQSILYGINNNFLGWYQQKPGQPPKLLIYWASTRESGVPDRFSGSGSGTDFTLTISSLQAEDVAVYYCQQYAYEPNTFGQGTKVEIK
B6: ABF-46: parent cMET mAb, mouse antibody; sequences in Table 1 (antibody, V domains shown)
VH: EVKLVESGGGLVQPGGSLRLSCATSGFTFTDYYMSWVRQPPGKALEWLGFIRNKANGYTTEYSASVKGRFTISRDNSQSILYLQMDTLRAEDSATYYCARDNWFAYWGQGTLVTVSA
VL: DILMTQSPSSLTVSAGEKVTMSCKSSQSLLASGNQNNYLAWHQQKPGRSPKMLIIWASTRVSGVPDRFIGSGSGTDFTLTINSVQAEDLAVYYCQQSYSAPLTFGAGTKLELK

Test system: EGFR and cMET co-expressed tumor cell lines (A431, A549, MDA-MB-468, MKN-45, NCI-H441, NCI-H1975)
Test: Binding activity of parent mAbs by flow cytometry
Conditions: flow cytometry on tumor cell lines, FIGS. 1A-1F, Table 4; compared with telisotuzumab (teliso)
Description: EGFR and cMET co-expressed tumor cell lines including A431 (ATCC® CRL-1555), A549 (ATCC® CCL-185, Provided by Procell), MDA-MB-468 (ATCC® HTB-132, Provided by Procell), MKN-45 (CL-0292, Provided by Procell), NCI-H441 (ATCC® HTB-174, Provided by COBIOER), NCI-H1975 (ATCC® CRL-5908, Provided by Procell) were selected for evaluating antibody binding activity by flow cytometry.
A431 was cultured with DMEM medium (Gibco, Cat #C11995500BT) containing 10% FBS. MDA-MB-468, MKN-45, NCI-H441 and NCI-H1975 were cultured with RPMI 1640 medium (Gibco, Cat #11875093) containing 10% FBS. A549 was cultured with F12K medium (Gibco, Cat #21127030) containing 10% FBS. Each antibody was incubated with different cell lines (1×10^5 cells/well) for 30 min in 0.2 mL FACS buffer (1×PBS with 0.1% BSA) at 4° C. After wash, cells were incubated with 100 μL PE-conjugated anti human Fc (Abcam, Ab98596, 1:500 dilution) for 30 min at 4° C. After wash with PBS, cells were resuspended in FACS buffer and analyzed by flow cytometer (Beckman, CytoFLEX).

| Molecule | binding activity of parent cMET mAbs (summary) |
| --- | --- |
| B1 | No binding activity |
| B2 | Stronger binding than teliso, tumor promoting activity due to bivalent binding |
| B3 | Stronger binding than teliso, no clinical validation |
| B4 | Stronger binding than teliso, no clinical validation |
| B5 | Stronger binding than teliso, seems to have off-target binding |
| B6 | Lower activity than teliso, mouse antibody, filed in 2010; inferior choice |
